Test results as given in the supplement of paper PMC10567573.
± gives the standard deviation.

Test: protein stability index of a GFP-peptide fusion (GPS, HEK-293T) (PSI 1-6); higher = more stable
[1] = treatment: DMSO, c terminus: a fixed tail appended
[2] = treatment: MLN4924 1 uM, 8 h, c terminus: a fixed tail appended
[3] = treatment: DMSO, c terminus: native
[4] = treatment: MLN4924 1 uM, 8 h, c terminus: native
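Also: 24-mer peptide tiles fused after GFP, lentivirally expressed, FACS-sorted into six equal bins by GFP/DsRed ratio, decoded by Illumina sequencing, PSI is the read-weighted mean bin number.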

Row | Sequence | protein stability index [1] | protein stability index [2] | protein stability index [3] | protein stability index [4]
1 | HSKLLVSGFWGVARHFNYVGDLMG [DHCR7] | 2.34 ± 0.53 | 2.33 ± 0.44 | – | –
2 | LPSAQDINRLVGLQNTYMGYLDYR [GLT8D2] | 2.52 ± 0.28 | 2.52 ± 0.38 | – | –
3 | WMIEEKATITSRGSSLSGSLCSLL [LURAP1L] | 2.28 ± 0.17 | 2.47 ± 0.2 | – | –
4 | FQKSLVLISKLPYIHFFHTVLKQI [DENND6A] | 2.67 ± 0.72 | 2.42 ± 0.63 | – | –
5 | SPYFHDQVLLKGMTSISLPSVMDP [ZBTB22] | 3.03 ± 0.3 | 3.12 ± 0.28 | – | –
6 | ALCENFPEEMATYLRYVRRLDFFE [CSNK1G1] | 2.21 ± 0.73 | 2.26 ± 0.26 | – | –
7 | LLASVPSNPNGNGGFMGYSAENIP [CRY1] | 3.52 ± 0.45 | 3.41 ± 0.23 | – | –
8 | VAMDTEFPGVVARPIGEFRSNADY [CNOT7] | 3.73 ± 0.38 | 3.78 ± 0.37 | – | –
9 | RTANPSKTIDLGAAAHYTGDKASP [CLINT1] | 4.99 ± 0.27 | 4.93 ± 0.083 | – | –
10 | LKERFAFLFNSELLSDVRFVLGKG [BTBD1] | 2.53 ± 0.23 | 2.64 ± 0.41 | – | –
11 | RLCLPALSQMGAQSSGKILLCPLC [TRIM15] | 2.35 ± 0.3 | 2.41 ± 0.21 | – | –
12 | PDNCEMFLNFNGMKLFLDCLKEFP [ZER1] | 2.25 ± 0.18 | 2.19 ± 0.33 | – | –
13 | FQEDVPMSTEEQYRIRQVNIYYYL [EFHC1] | 2.52 ± 0.78 | 2.22 ± 0.15 | – | –
14 | LRRTGCAALRIANCKLFRLQLQQG [GAN] | 2.33 ± 0.47 | 2.13 ± 0.28 | – | –
15 | ANDYKDTLGKGSSLSAPSKKTSR [KRT71] | – | – | 5.26 ± 0.32 | 5.12 ± 0.47
16 | GNQDYKYRVSDVTKAGHSLELIEP [VDR] | 4.24 ± 0.22 | 4.3 ± 0.26 | – | –
17 | TFDVDEYEHYERVENGDFNWIVPG [CDC14A] | 4.11 ± 0.26 | 4.17 ± 0.17 | – | –
18 | SVDLIKTYKHINEVYYAKKKRRAQ [DYRK1B] | 2.85 ± 0.23 | 3.13 ± 0.14 | – | –
19 | SRPVKGQVVTVHLQTSLENGTRVQ [FKBP8] | 3.38 ± 0.45 | 3.51 ± 0.26 | – | –
20 | SSSSKLSRSPLKIVKKPKSMQCKV [EPB41L3] | 3.54 ± 0.11 | 3.41 ± 0.52 | – | –
21 | QQCVDKESSLGSESEEEEEFYDAD [SLC22A15] | 5.52 ± 0.45 | 5.33 ± 0.33 | – | –
22 | FHNAVSAYFAGNQKQLEQTLQQFN [ARFIP2] | 2.45 ± 0.23 | 2.34 ± 0.42 | – | –
23 | PRSAEPGYLVTKVVAVDRDSGQNA [PCDHGA10] | 4.77 ± 0.16 | 4.7 ± 0.29 | – | –

Row | Sequence | protein stability index [1] | protein stability index [2] | protein stability index [3] | protein stability index [4]
24 | STVKNEFSLKTFKRKSEVERAVKR [MATN2] | 4.17 ± 0.14 | 4.39 ± 0.3 | – | –
25 | ARMLSSNERDSSEPGNFIPLFTPQ [CDC25A] | 3.85 ± 0.25 | 3.96 ± 0.4 | – | –
26 | DMKLIILANRLCLPHLVALTEQYT [RHOBTB2] | 3.8 ± 0.26 | 3.08 ± 1.3 | – | –
27 | SESEQEFLYKTAGGLIYWIGLTKA [CD207] | – | 2.11 ± 0.59 | – | –
28 | VVRICCIRSFGHFIARLQGSILQF [SMG5] | 2.57 ± 0.37 | 2.66 ± 0.57 | – | –
29 | VENPSTASHSLSPSEHVQGKSPVN [ZNF649] | 5.26 ± 0.17 | 5.21 ± 0.29 | – | –
30 | IGLDNGTISEFILSEDYNKMTPVK [WDFY2] | 2.98 ± 0.47 | 3.16 ± 0.54 | – | –
31 | VVEATHMCMVMRGVQKMNSKTVTS [GCH1] | 2.82 ± 0.31 | 3 ± 0.45 | – | –
32 | EIPIHGNGEARQLPEDDGLEQDLQ [ARFIP2] | 5.04 ± 0.36 | 5.28 ± 0.12 | – | –
33 | YRPLKQELQGLDYCKPTRLDLLLD [SPSB1] | 2.77 ± 0.29 | 2.6 ± 0.32 | – | –
34 | FLSSEKQICGTHRQTKKMFCDMDK [TRIM43] | 3.18 ± 0.33 | 3.4 ± 0.19 | – | –
35 | ELRNVQDVVEDYKKRYEEEINKRT [KRT71] | 3.62 ± 0.35 | 4.45 ± 0.24 | – | –
36 | RFQDLVLRMLEYEPAARISPLGAL [DYRK1B] | 2.67 ± 0.47 | 2.4 ± 0.43 | – | –
37 | ESTNPEKAHETLHQSLSLASSPKG [CDC25A] | 5.37 ± 0.37 | 5.45 ± 0.27 | – | –
38 | YIMTRDYLTVKVWDLNMENRPIET [PPP2R2B] | 2.16 ± 0.5 | 2.45 ± 0.26 | – | –
39 | TAGLKIFEPPAPGEGNSSQNSRNK [TNFSF13B] | 5.2 ± 0.22 | 5.24 ± 0.15 | – | –
40 | IDGDGDDMERFMEEMRELRRKIRE [BEX5] | 3.26 ± 0.24 | 3.71 ± 0.34 | – | –
41 | EDEDDDSADMDESDEDDEEERRRR [FBXO3] | 5.65 ± 0.27 | 5.69 ± 0.12 | – | –
42 | KEAQYIRTELVEQAFRAIDRADYY [PCMTD2] | 2.71 ± 0.27 | 2.88 ± 0.36 | – | –
43 | NLENPMRRIHSLPQKLLGCSPALK [CDC25A] | 2.64 ± 0.23 | 3.11 ± 0.32 | – | –
44 | PPDSKEGIVVESNHDSHMAKERAH [PDZK1] | 5.55 ± 0.36 | 5.55 ± 0.23 | – | –
45 | IDASQLPHRVLETRGHAISILFGF [SMIM2] | 2.68 ± 0.54 | 2.51 ± 0.54 | – | –
46 | IWVPIKIGALTYFAQADALKGTLV [ACSBG2] | 2.76 ± 0.71 | 3.08 ± 0.67 | – | –

Row | Sequence | protein stability index [1] | protein stability index [2] | protein stability index [3] | protein stability index [4]
47 | FLTYVPLLGLKAFLGLFFIVRFLE [FADS1] | 2.56 ± 0.6 | 2.17 ± 0.67 | – | –
48 | CLPLTFCIHTGLSQYIAVEAAEGR [FBXO3] | 2.96 ± 0.72 | 2.4 ± 0.93 | – | –
49 | TFPKALTNGSFSPSGNNGSVNWRT [DLC1] | 3.14 ± 0.14 | 3.19 ± 0.23 | – | –
50 | AYCLDQGAEDGDRAILYPCHGMSS [GALNT9] | 3.67 ± 0.29 | 3.69 ± 0.11 | – | –
51 | EEWGHQDPSKRALSRDTVQESYEN [ZNF263] | 5.27 ± 0.4 | 5.3 ± 0.23 | – | –
52 | VSSVTQVEVDENAYRCGSGMQMAE [NET1] | 4.2 ± 0.3 | 4.42 ± 0.11 | – | –
53 | STICFGQGAARGFKSNKKKTKQC [ZNF511] | – | – | 4.86 ± 0.14 | 4.71 ± 0.32
54 | GISTGHWSGEVKDKNVQVVELPIV [FUT8] | 3.8 ± 0.31 | 3.9 ± 0.37 | – | –
55 | SLGPALSTGPRGLCAMPQTGDAF [VENTX] | – | – | 2.44 ± 0.12 | 2.3 ± 0.11
56 | IVIFCLETLPELKDDKDFTGTVHR [KCNA1] | 2.42 ± 0.46 | 2.16 ± 0.27 | – | –
57 | PSSMDLLIQDSPDSSTSPKGKQPT [NANOGP8] | 5.2 ± 0.2 | 5.3 ± 0.18 | – | –
58 | MQVNPISKRMGPMTVVRMDASVQP [RHOBTB1] | 3.48 ± 0.19 | 3.43 ± 0.2 | – | –
59 | GFGLAHTPLEPDAKDLPCDSKPES [TBX5] | 5.38 ± 0.51 | 5.47 ± 0.43 | – | –
60 | KALNTFIDDLFAFVIKMPVMYRIG [CLPTM1] | 3.02 ± 0.53 | 2.82 ± 0.5 | – | –
61 | LTTASIIQLGVTPPGYSAWIKEEA [SLC6A17] | 2.6 ± 0.23 | 2.82 ± 0.31 | – | –
62 | TSVGMSFVAGGISGTVAAVLTLPF [SLC25A39] | 2.95 ± 0.77 | 2.54 ± 0.25 | – | –
63 | LHPVQKVILNYPSPWDQEERPAQR [TRAF3IP2] | 3.4 ± 0.37 | 3.66 ± 0.34 | – | –
64 | STTEGIQLAKELGATYLELHSLDD [RHOBTB3] | 3.77 ± 0.3 | 4.16 ± 0.37 | – | –
65 | FNDPFFIVETVCIVWFSFEFVVRC [KCNA4] | 3.38 ± 0.68 | 3.45 ± 0.98 | – | –
66 | ETTGIQIWSEVFTVEKPGGKKVAV [ATL3] | 2.79 ± 0.24 | 3.01 ± 0.2 | – | –
67 | VLLKKDVDAAYANKVELQAKVESM [KRT71] | 3.63 ± 0.36 | 3.65 ± 0.36 | – | –
68 | LRVLPNLPCVVQEGAIVMARGRHV [PYCR3] | 2.63 ± 0.37 | 2.73 ± 0.22 | – | –
69 | DDLQQLQLFTEYGRLAMDEIFQKP [ATL3] | 3.31 ± 0.26 | 3.57 ± 0.21 | – | –

Row | Sequence | protein stability index [1] | protein stability index [2] | protein stability index [3] | protein stability index [4]
70 | LGLTQNPEGQKVLFVTFLLIYMVT [OR4A15] | 2.75 ± 0.66 | 3.33 ± 1.1 | – | –
71 | LSESETGPMEEVERQVLPDPEVLE [PBXIP1] | 5.6 ± 0.31 | 5.61 ± 0.16 | – | –
72 | PSQRLVQNCLWTLRNLSDAATKQE [CTNNB1] | 3.31 ± 0.18 | 3.19 ± 0.25 | – | –
73 | INLEEKEKQIRSFLIEGPLINTIR [PLEKHN1] | 2.5 ± 0.13 | 2.67 ± 0.31 | – | –
74 | ELDELQLCKNCFYLSNARPDNWFC [ZMYND11] | 2.01 ± 0.25 | 2.3 ± 0.62 | – | –
75 | HEEVVEKVKKSGSRVMFLLVDKET [PDZK1] | 3.97 ± 0.17 | 4.25 ± 0.23 | – | –
76 | GSMEALNLKQLRKRGSIPTSLTAL [PPFIA4] | 3.11 ± 0.2 | 3.11 ± 0.22 | – | –
77 | LDLILAILALELICSLICLLIYTV [TMEM192] | 2.89 ± 0.55 | 3 ± 0.5 | – | –
78 | RETASLKLLPHQPRIVEMKKGSNG [PDZK1] | 3.75 ± 0.31 | 3.85 ± 0.32 | – | –
79 | PPLRVIVKDALFCSCLSDILRFIY [RHOBTB3] | 2.78 ± 0.16 | 2.84 ± 0.27 | – | –
80 | PVAQSTDAIRGKVGYTRGLHVWQI [SPSB1] | 2.15 ± 0.13 | 2.21 ± 0.17 | – | –
81 | REGALRAALQRSLAAALAQHSVPL [TRADD] | 2.25 ± 0.3 | 2.28 ± 0.2 | – | –
82 | GSSGSYFVKDPQGRIIAVFKPKNE [PI4K2A] | 3.34 ± 0.16 | 3.66 ± 0.12 | – | –
83 | FIVLFLLWPFAWLQVAGLSEEQLQ [LPCAT4] | 2.65 ± 0.13 | 3.05 ± 0.59 | – | –
84 | RKFWWKNVKMIVLICVIVFIIILF [VAMP8] | 3.13 ± 0.32 | 2.98 ± 0.3 | – | –
85 | NNQYSEGVQREAQRIALRLGNGND [KMT2E] | 4.51 ± 0.24 | 4.63 ± 0.18 | – | –
86 | GRKQPGVHEEPVLKKWPKLKSKK [C22orf31] | – | – | 5.16 ± 0.26 | 5.08 ± 0.24
87 | EQIAERKRKMVSWEASSLGLVTAA [KMT2E] | 2.65 ± 0.45 | 3.33 ± 0.76 | – | –
88 | KLEAEKRILQEKLDQPVSAPPSPR [CCDC6] | 5.24 ± 0.26 | 5.21 ± 0.37 | – | –
89 | QKLLEQTQIIGEQNARLAELERKL [FBXO28] | 4.15 ± 0.082 | 4.24 ± 0.38 | – | –
